Among the targets are HLA-A*02:02; HLA-A*02:06; HLA-A*02:03; HLA-A*33:01; HLA-A*68:01; HLA-A*03:01; HLA-A*31:01; HLA-A*11:01.
Experiment in all cases: IEDB peptide-MHC binding, purified MHC/competitive/radioactivity; filed as Kd, often an IC50 or EC50 that approximates it; ≥ and ≤ were set here for values at or beyond the usual limits of such assays
The mark [1] stands for this setting: source organism: Vaccinia virus WR.
[2] abbreviates: source organism: Lymphocytic choriomeningitis virus (strain Armstrong).
Where [3] appears, read: source organism: Dengue virus 4 Philippines/H241/1956.
Where [4] appears, read: source organism: Dengue virus 2 Jamaica/1409/1983.
Where [5] appears, read: source organism: Mammarenavirus brazilense.

LAIKNYYRKT: the values for the Kd in the experiment with HLA-A*02:02 (setting [1]), in the experiment with HLA-A*02:06 (setting [1]) and in the experiment with HLA-A*02:03 (setting [1]) were ≥ 36800 nM, ≥ 69800 nM and 7180 nM, respectively.
For LATLNTLITL, in that order: 139 nM, 323 nM and 338 nM.
Taken in the same sequence, the figures for LLENKSLTIL were 185 nM, 7430 nM and 541 nM.
Turning to LSAEELMSL, the values for the Kd in the experiment with HLA-A*02:02 (setting [2]), with HLA-A*02:06 (setting [2]) and with HLA-A*02:03 (setting [2]) were 64.5 nM, 65.9 nM and 705 nM, respectively.
Turning to LVVVTTLCAI, in the experiment with HLA-A*02:06 (setting [3]), the Kd was 91.2 nM.
Take MIGNYFSGVL: the values for the Kd in the experiment with HLA-A*02:02 (setting [1]), with HLA-A*02:06 (setting [1]) and with HLA-A*02:03 (setting [1]) were 712 nM, 1310 nM and 761 nM, respectively.
For MMILPAALA, in the experiment with HLA-A*02:03 (source organism: Dengue virus 3 Sri Lanka/1266/2000), the Kd came out at 46.4 nM.
Regarding NITPDDGLGL, the Kd in the experiment with HLA-A*02:02 (setting [1]) came out at 1910 nM; with HLA-A*02:06 (setting [1]) it was 3450 nM; with HLA-A*02:03 (setting [1]), 1290 nM.
For NQAVVLMGL, the Kd with HLA-A*02:06 (source organism: Dengue virus 3 Martinique/1243/1999) amounted to 88.4 nM.
For NQILEENMEV, the Kd in the experiment with HLA-A*02:06 (setting [3]) came out at 29.1 nM.
As to NTDHPLSINV, the Kd with HLA-A*02:02 (setting [1]) was found to be 388 nM; with HLA-A*02:06 (setting [1]), 1.64 nM; with HLA-A*02:03 (setting [1]), 583 nM.
NTVGMSIVCI: the Kd with HLA-A*02:02 (setting [1]) amounted to 3020 nM; with HLA-A*02:06 (setting [1]), 1210 nM; with HLA-A*02:03 (setting [1]), 1540 nM.
For NVFISPASI, in that order: 202 nM, 660 nM and 0.727 nM.
Taken in the same sequence, the figures for NVIEDITFL were 146 nM, 25.8 nM and 300 nM.
For RIASILSLET, in that order: 583 nM, 751 nM and 449 nM.
As for RIITILQDI, the dissociation constant Kd with HLA-A*02:02 (setting [1]) stood at 583 nM; with HLA-A*02:06 (setting [1]) it was 2.01 nM; with HLA-A*02:03 (setting [1]), 5.57 nM.
For RISSSLDQT, in that order: 6790 nM, ≥ 27800 nM and 12800 nM.
For RLFTRCAVI, in that order: 93.8 nM, 2820 nM and 249 nM.
For RNHLRDLMGV, the results for the Kd with HLA-A*02:02 (setting [2]), in the experiment with HLA-A*02:06 (setting [2]) and in the experiment with HLA-A*02:03 (setting [2]) were 428 nM, 107 nM and 733 nM, respectively.
For the sequence RTLILAPTRV, the Kd in the experiment with HLA-A*02:06 (setting [4]) worked out at 466 nM.
As to RTNDLTALL, the results for the Kd with HLA-A*02:02 (setting [1]), with HLA-A*02:06 (setting [1]) and with HLA-A*02:03 (setting [1]) were 3.66 nM, 119 nM and 7.23 nM, respectively.
For RVSENTGMGM, in that order: 839 nM, 146 nM and 88.9 nM.
Taken in the same sequence, the figures for SADNHPKMI were 8180 nM, ≥ 77100 nM and ≥ 43500 nM.
For SANMDWRSLT, in that order: 1790 nM, ≥ 48000 nM and 11300 nM.
With SLTTIGTIA, the Kd in the experiment with HLA-A*02:02 (setting [1]) was determined as 1.04 nM; with HLA-A*02:06 (setting [1]), 489 nM; with HLA-A*02:03 (setting [1]), 3.69 nM.
Taken in the same sequence, the figures for TILDDNLYKV were 1080 nM, 48.8 nM and 1630 nM.
With TLKYPIEHGI, the Kd with HLA-A*02:06 (source organism: Homo sapiens) was ≥ 26400 nM.
For the sequence TMWHVTRGAV, the Kd with HLA-A*02:03 (setting [4]) was 382 nM.
As to TQLFKYVPSA, the Kd with HLA-A*02:02 (setting [1]) is ≥ 70000 nM; in the experiment with HLA-A*02:06 (setting [1]), ≥ 69800 nM; with HLA-A*02:03 (setting [1]), ≥ 70400 nM.
In the case of TVKNVDIIDL, the Kd in the experiment with HLA-A*02:02 (setting [1]) was ≥ 31300 nM; with HLA-A*02:06 (setting [1]), 12400 nM; with HLA-A*02:03 (setting [1]) it was 8310 nM.
Take VLIFILLTA: the Kd in the experiment with HLA-A*02:03 (source organism: Dengue virus 2 Peru/IQT2913/1996) was 140 nM.
As to VLSIPPTAGI, in the experiment with HLA-A*02:03 (setting [3]), the Kd stood at 226 nM.
As to YLGSANMDWR, the Kd was 3690 nM with HLA-A*33:01 (setting [1]); 1070 nM with HLA-A*68:01 (setting [1]); 850 nM with HLA-A*03:01 (setting [1]); 1350 nM with HLA-A*31:01 (setting [1]); 921 nM with HLA-A*11:01 (setting [1]).
For YLRLYIILAR, in that order: 117 nM, 14.8 nM, 160 nM, 12.7 nM and 1470 nM.
For YSISNDLLY, in that order: ≥ 65500 nM, 2310 nM, 1190 nM, 249 nM and 337 nM.
For YVEKEENMDK, in that order: ≥ 69100 nM, 3370 nM, ≥ 70100 nM, 1270 nM and 2170 nM.
Take YVNHTASGEH: the Kd in the experiment with HLA-A*33:01 (setting [5]) is ≥ 69000 nM; in the experiment with HLA-A*68:01 (setting [5]), ≥ 21700 nM; with HLA-A*03:01 (setting [5]), ≥ 70000 nM; with HLA-A*31:01 (setting [5]), ≥ 70000 nM; with HLA-A*11:01 (setting [5]), ≥ 69700 nM.
